The test system of one assay is M21 melanoma cells. In words: M21 melanoma cell adhesion to vitronectin-coated plates. It is filed as cell-based. As for the experimental part: M21 melanoma cells were labelled with ^35 S-methionine, and then added to vitronectin-coated plates in the presence of the indicated concentrations of purified snake venom peptides. Cell attachment was measured by solubilizing the cells remaining after an incubation and wash, as previously describe.

Another assay concerns the target vitronectin receptor (Homo sapiens, UniProt P05106+P06756). The assay can be described thus: plate assay, inhibition of vitronectin binding to vitronectin receptor. The source says:
The PAI assay systems further include characterization of the PAI specificity by binding inhibition assays identical to that above but substituting other adhesive proteins for Fg and other receptors for GP IIb-IIIa. In particular, inhibition of the binding of vitronectin to the vitronectin receptor; fibronectin to the fibronectin receptor; fibronectin to GP IIb-IIIa and fibrinogen and/or vWF to GP IIb-IIIa can be assessed. The adhesive protein and receptors for these assays are available in the art.

Assay [1] has as its target ADP-induced human platelet aggregation (Homo sapiens, UniProt P05106+P08514). In words: standard aggregation inhibition assay (ADP-induced human platelet aggregation). The format is cell-based. The text has this:
2. Standard assays directly applied to platelet aggregation, such as those described by Gann, Z.-R., et al., J Biol Chem (1988) 263:19827-19832; Huang, T. F., et al., J Biol Chem (1987) 262:16157-16163; Biochemistry (1989) 28:661-666, cited above and incorporated herein by reference;

Chain of vitronectin receptor (P06756 31-889 limits assumed): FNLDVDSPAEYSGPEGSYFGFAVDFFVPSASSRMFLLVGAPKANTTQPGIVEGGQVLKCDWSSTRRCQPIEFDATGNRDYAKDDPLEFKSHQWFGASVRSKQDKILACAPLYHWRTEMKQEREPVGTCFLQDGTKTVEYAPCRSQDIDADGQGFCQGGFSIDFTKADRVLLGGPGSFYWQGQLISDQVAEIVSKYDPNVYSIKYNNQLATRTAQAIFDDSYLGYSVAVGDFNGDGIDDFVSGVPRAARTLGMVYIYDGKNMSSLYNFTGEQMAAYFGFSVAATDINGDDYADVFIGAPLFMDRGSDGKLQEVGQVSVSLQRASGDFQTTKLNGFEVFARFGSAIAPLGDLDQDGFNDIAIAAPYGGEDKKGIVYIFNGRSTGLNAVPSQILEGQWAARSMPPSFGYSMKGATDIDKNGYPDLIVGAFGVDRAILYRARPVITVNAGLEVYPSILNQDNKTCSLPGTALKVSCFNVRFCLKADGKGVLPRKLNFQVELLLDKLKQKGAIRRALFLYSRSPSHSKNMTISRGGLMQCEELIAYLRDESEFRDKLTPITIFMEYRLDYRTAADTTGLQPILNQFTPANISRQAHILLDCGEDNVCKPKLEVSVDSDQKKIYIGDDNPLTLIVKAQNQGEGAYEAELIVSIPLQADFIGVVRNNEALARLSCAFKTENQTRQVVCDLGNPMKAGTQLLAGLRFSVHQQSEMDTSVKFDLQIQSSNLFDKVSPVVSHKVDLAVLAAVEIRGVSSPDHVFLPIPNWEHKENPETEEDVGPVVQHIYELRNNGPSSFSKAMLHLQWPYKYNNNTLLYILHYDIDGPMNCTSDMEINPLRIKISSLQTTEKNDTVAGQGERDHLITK
Chain of vitronectin receptor (P06756 891-1048 limits assumed): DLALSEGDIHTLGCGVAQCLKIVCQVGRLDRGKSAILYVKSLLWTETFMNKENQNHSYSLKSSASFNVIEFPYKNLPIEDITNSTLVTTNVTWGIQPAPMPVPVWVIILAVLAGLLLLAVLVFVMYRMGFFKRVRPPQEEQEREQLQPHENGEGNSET
Chain of vitronectin receptor (P05106 27-788): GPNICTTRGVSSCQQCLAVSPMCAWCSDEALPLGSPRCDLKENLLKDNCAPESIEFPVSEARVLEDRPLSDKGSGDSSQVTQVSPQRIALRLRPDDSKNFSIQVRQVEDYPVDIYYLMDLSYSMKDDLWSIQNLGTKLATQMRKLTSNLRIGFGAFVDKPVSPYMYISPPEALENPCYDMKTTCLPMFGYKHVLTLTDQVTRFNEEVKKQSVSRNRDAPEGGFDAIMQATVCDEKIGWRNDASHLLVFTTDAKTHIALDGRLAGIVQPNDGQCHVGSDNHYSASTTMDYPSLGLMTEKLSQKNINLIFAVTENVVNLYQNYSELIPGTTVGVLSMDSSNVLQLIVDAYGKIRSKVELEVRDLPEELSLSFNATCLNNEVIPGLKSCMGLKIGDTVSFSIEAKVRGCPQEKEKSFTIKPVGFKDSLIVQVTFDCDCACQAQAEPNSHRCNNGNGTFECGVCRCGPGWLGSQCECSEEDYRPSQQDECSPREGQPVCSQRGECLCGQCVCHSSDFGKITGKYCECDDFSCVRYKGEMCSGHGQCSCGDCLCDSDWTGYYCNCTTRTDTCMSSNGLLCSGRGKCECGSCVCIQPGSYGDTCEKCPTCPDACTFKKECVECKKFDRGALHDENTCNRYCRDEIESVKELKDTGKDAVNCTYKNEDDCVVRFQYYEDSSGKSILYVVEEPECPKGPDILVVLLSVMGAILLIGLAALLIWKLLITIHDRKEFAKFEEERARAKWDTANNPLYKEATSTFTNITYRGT

B1: cotiarin (protein)
peptide: EAGEECDCGAPENPCCDAATCKLRPGAQCAEGLCCDQCRFKGAGKICRRARGDNPDDRCTGQSADCPRNRFH
For B1, in the assay on M21 melanoma cells, the “M21 cell attachment to vitronectin (in words)” value is reported as “very potent in inhibiting cell attachment to vitronectin”. In the assay with vitronectin receptor, the “inhibition of vitronectin binding to the vitronectin receptor (in words)” value was “potent inhibitor”.

B2: barbourin (protein)
peptide: EAGEECDCGSPENPCCDAATCKLRPGAQCADGLCCDQCRFMKKGTVCRVAKGDWNDDTCTGQSADCPRNGLYG
Take B2: in the assay with M21 melanoma cells, the “M21 cell attachment to vitronectin (in words)” value is listed as “Neither barbourin nor Peptide 1 (truncated barbourin) had a significant effect”. Further, the “platelet aggregation inhibition activity (in words)” value in assay [1] is “potent inhibitors of platelet aggregation”.

Source of the values: US5747447A, “Stable polypeptide composition” (COR Therapeutics, priority 1995, dated 1998).
